In the supplement of paper PMC10567573:
± gives the standard deviation.

Assay: protein stability index of a GFP-peptide fusion (GPS, HEK-293T) (PSI 1-6); higher = more stable
[1] = treatment: DMSO, c terminus: a fixed tail appended
[2] = treatment: MLN4924 1 uM, 8 h, c terminus: a fixed tail appended
[3] = treatment: DMSO, c terminus: native
[4] = treatment: MLN4924 1 uM, 8 h, c terminus: native
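Also: 24-mer peptide tiles fused after GFP, lentivirally expressed, FACS-sorted into six equal bins by GFP/DsRed ratio, decoded by Illumina sequencing, PSI is the read-weighted mean bin number.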

Sequence | protein stability index [1] | protein stability index [2] | protein stability index [3] | protein stability index [4]
LALLNLACMMTITFLPYTFSLMVT [TMEM175] | 3.27 ± 0.32 | 3.38 ± 0.27 |  | 
LALVTLLSFATRFHRLDEPPHICW [POMT2] | 3.25 ± 0.61 | 3.19 ± 0.22 |  | 
LAPVPTHSTVSELSRSPVATATSC [DUSP5] | 4.24 ± 0.3 | 4.17 ± 0.15 |  | 
LAQLLDTLLAIGTKLPENQAIQMR [INTS4] | 3.12 ± 0.73 | 2.76 ± 0.5 |  | 
LASGRIILILEGGYNLTSISESMA [HDAC6] | 2.63 ± 0.14 | 2.82 ± 0.79 |  | 
LATLDPLALDREPPPHLLPEKHQV [WDR88] | 4.06 ± 0.22 | 4.24 ± 0.16 |  | 
LCAYGFFASLRPSEPFLTPYLLGP [SLC19A2] | 2.94 ± 0.32 | 2.9 ± 0.56 |  | 
LCCEWLRPEKHTKEQILEFLVLEQ [ZNF232] | 2.23 ± 0.31 | 2.24 ± 0.27 |  | 
LCKNCFYLSNARPDNWFCYPCIPN [ZMYND11] | 2.2 ± 0.29 | 2.23 ± 0.053 |  | 
LCMDWCKDKRRIVSSSQDGKVIVW [GNB5] | 2.17 ± 0.14 | 2.33 ± 0.16 |  | 
LDMELGPSQGQETNEVCEQAGGGA [ADAMTSL2] | 5.33 ± 0.52 | 5.27 ± 0.54 |  | 
LDNSRSILKRRYYRQHCTLELGSY [CTDNEP1] | 2.34 ± 0.45 | 2.42 ± 0.31 |  | 
LDPDTMHARLRLSADRLTVRCGLL [TRIM14] | 2.51 ± 0.16 | 2.48 ± 0.25 |  | 
LDSIIDDRVILSSSTSCLMPSKLF [CRYL1] | 2.71 ± 0.38 | 2.77 ± 0.21 |  | 
LEDFFVMSDYRGFGIGSEILKNLS [SAT1] | 2.38 ± 0.14 | 2.28 ± 0.44 |  | 
LEDSTMGSVADTVARVLRGCLENM [PLK2] | 2.79 ± 0.32 | 2.96 ± 0.38 |  | 
LEGKTFYSKKDRPLCKSHAFSHV [PDLIM7] |  |  | 3.36 ± 0.44 | 3.83 ± 0.75
LEISDQEVLEWYTAKDFIVGKSLT [EFHC1] | 3.06 ± 0.22 | 2.92 ± 0.3 |  | 
LEIVGREGVSLTAVLTTHHHWDHA [HAGHL] | 2.59 ± 0.34 | 2.32 ± 0.44 |  | 
LELLSAPELKSLAKTFHLVNPNGQ [FAN1] | 2.74 ± 0.13 | 2.84 ± 0.095 |  | 
LETRFKIQQLLEPQQYMAFLPHHI [FBXO34] | 2.36 ± 0.49 | 2.27 ± 0.33 |  | 
LFILSTLVVDYIDEGRLVLEFSLL [SOAT1] | 3.28 ± 0.57 | 2.88 ± 0.96 |  | 
LGGRALMNCLPSNRTLWRLDLAGN [LRRC45] | 2.5 ± 0.41 | 2.32 ± 0.28 |  | 

Sequence | protein stability index [1] | protein stability index [2] | protein stability index [3] | protein stability index [4]
LGPELIKESNANPIFMRKDTKMSF [DPCD] | 3.46 ± 0.084 | 3.43 ± 0.2 |  | 
LGSWLVPFAYLTVLDLSKSLSAAL [POMT2] | 3.19 ± 0.56 | 3.34 ± 0.37 |  | 
LHAELCQAGSSQGLSLCQFQNFSL [LPCAT4] | 2.42 ± 0.33 | 2.21 ± 0.13 |  | 
LHTAREFSEEDEEETTSQDWGTPR [RTN2] | 5.4 ± 0.27 | 5.46 ± 0.23 |  | 
LIDYKSYMDTKLLVARFLEQSSCT [FAM189A2] | 2.38 ± 0.091 | 2.25 ± 0.19 |  | 
LIVGLQGMDLNLEAEALAGTGLVL [HDAC6] | 2.91 ± 0.48 | 2.6 ± 0.62 |  | 
LKAEELLLKIHEVSTVSHADADCF [CASP6] | 3.03 ± 0.15 | 3.14 ± 0.28 |  | 
LKDNPLDPVLAKVAGDCLDEKQCK [LRRC59] | 5.13 ± 0.44 | 5.19 ± 0.27 |  | 
LKGGLQEVAEQLELERIGPQHQAG [CNOT7] | 4.67 ± 0.14 | 4.94 ± 0.22 |  | 
LKNHFQSVLEQLELQEKQKNEKLI [TAF7L] | 2.82 ± 0.12 | 2.95 ± 0.22 |  | 
LKNIRHRPGGGRVKIESVKLDFKE [MAP2] | 3.22 ± 0.29 | 3.52 ± 0.38 |  | 
LKVVHELPACTLCAGPLEDAVTIP [TRIM15] | 2.76 ± 0.13 | 3.15 ± 0.26 |  | 
LLFEYPESSSPARGIAIVSVLVIL [KCNA4] | 2.92 ± 0.2 | 3 ± 0.36 |  | 
LLGLGVLLFSGGLSESETGPMEEV [PBXIP1] | 2.22 ± 0.062 | 2.32 ± 0.31 |  | 
LLNAASTVARPVFTEYQASAFGNV [RHOBTB3] | 2.48 ± 0.21 | 2.72 ± 0.31 |  | 
LLPYFYIIYMAILLTHRCLRDEHR [DHCR7] | 3.25 ± 0.52 | 3.05 ± 0.2 |  | 
LLQKYNMQFLIRSHECKPEGYEFC [PPEF2] | 2.5 ± 0.84 | 2.27 ± 0.49 |  | 
LLSQEKLQEQHLSSPQGVQLDIAS [BCL2L13] | 4.45 ± 0.14 | 4.36 ± 0.15 |  | 
LLVQDATPVSNSLLPEKAFSDIPS [GFOD1] | 3.35 ± 0.24 | 3.37 ± 0.22 |  | 
LNGYRLGERVLQVSFKTSKQHKA [ELAVL3] |  |  | 3.16 ± 0.29 | 2.69 ± 0.42
LNSVERYDPKTNQWSSDVAPTSTC [KLHL20] | 4.18 ± 0.097 | 4.24 ± 0.43 |  | 
LPCTSRCPRPCRESAFKLSTGTSR [SCNN1D] | 2.64 ± 0.99 | 2.9 ± 0.38 |  | 
LPCVVQEGAIVMARGRHVGSSETN [PYCR3] | 4.42 ± 0.36 |  |  | 

Sequence | protein stability index [1] | protein stability index [2] | protein stability index [3] | protein stability index [4]
LPGPKGDDGKLGATGPMGMRGFKG [SCARA5] | 4.7 ± 0.46 | 4.48 ± 0.2 |  | 
LPLSHIAAQMMDIWVPIKIGALTY [ACSBG2] | 2.79 ± 0.76 | 2.73 ± 0.82 |  | 
LQDLQVTDILPQMITLSEAYIQIW [USP39] | 2.58 ± 0.54 | 2.55 ± 0.77 |  | 
LQHTQELFPQWHLPIKIAAIIASL [STEAP1] | 2.16 ± 0.35 | 2.1 ± 0.24 |  | 
LQLKQELAMLNAVTEDLRLKDWEH [SCARA5] | 3.36 ± 0.046 | 3.34 ± 0.24 |  | 
LQNEVPPQPDPVFLEALSSRYLGD [SERTAD3] | 4.32 ± 0.15 | 4.25 ± 0.14 |  | 
LQSCQAEIIELRRTVNALEIELQA [KRT34] | 2.15 ± 0.45 | 2.11 ± 0.29 |  | 
LQSGQEYVFFVLAVMEHAESKMYA [PTPRD] | 2.4 ± 0.63 | 2.51 ± 0.75 |  | 
LRHSFQKQQREKTRWLNSGRGDEA [ADD1] | 3.63 ± 0.5 | 3.92 ± 0.35 |  | 
LSDKSCQSFISWTGDGWEFKLADP [ETS2] | 2.49 ± 0.22 | 2.59 ± 0.36 |  | 
LSDNATAFSNRSKQLRRQMWWRGC [VAMP4] | 2.54 ± 0.048 | 2.67 ± 0.33 |  | 
LSDVQNPAISITENVLHFKAQGHG [HACD3] | 4.13 ± 0.19 | 4.28 ± 0.15 |  | 
LSEDDKLQGAASHVPEGFDPTGPA [EHMT1] | 5.333 ± 0.053 | 5.4 ± 0.073 |  | 
LSEYVSRMKETQKSIYYITGESKE [HSP90AB1] | 3.69 ± 0.24 | 3.67 ± 0.2 |  | 
LSPLSLAQYDSWPHYPEYFQQPAP [LOXL2] | 2.62 ± 0.12 | 2.87 ± 0.18 |  | 
LSSAVWPGGETEALTRLERHLERK [CRY1] | 4.44 ± 0.22 | 4.27 ± 0.061 |  | 
LSTLLAPYQALRLWARGTWTQATG [SOAT2] | 2.4 ± 0.55 | 2.08 ± 0.55 |  | 
LSVSNNQEPDFIDDIEEKTPISNE [KMT2E] | 4.69 ± 0.37 | 4.75 ± 0.21 |  | 
LTPKGGVRTSYQPSSPGRFTKETT [TRIM29] | 4.17 ± 0.16 | 4.21 ± 0.11 |  | 
LTPKSTPVKTLPFSPSQFLNFWNK [MYBL2] | 2.24 ± 0.26 | 2.4 ± 0.18 |  | 
LTQDWVQENYLEYRQVPGSDPARY [MAGEA10] | 4.06 ± 0.22 | 3.88 ± 0.2 |  | 
LVVADDKMAAFHGAGLKRYLLTVM [ADAMTS4] | 2.72 ± 0.63 | 2.35 ± 0.61 |  | 
LVVILLSIVAVGFHIFRTLEVNRL [PKD2L1] | 3.44 ± 0.88 | 3.12 ± 0.23 |  | 

Sequence | protein stability index [1] | protein stability index [2] | protein stability index [3] | protein stability index [4]
LWHLAITDRSFNIVDIKPANMEDL [PPP2R2C] | 2.36 ± 0.23 | 2.41 ± 0.28 |  | 
LWNGDKYAATTTPFTPLHIKVKPK [TRIM39] | 2.99 ± 0.27 | 3.28 ± 0.38 |  | 
MAFLDKRLQVKEHQHEEIQNVRNH [ATL3] | 3.84 ± 0.069 | 3.98 ± 0.23 |  | 
MAPDPVAAETAAQGPTPRYFTWDE [FADS1] | 4.7 ± 0.17 | 4.83 ± 0.27 |  | 
MAPKTKKGCKVTLPEKPVKLASHT [FBF1] | 4.16 ± 0.15 | 4.21 ± 0.087 |  | 
MAPPAAPGRDRVGREDEDGWETRG [HES6] | 5.2 ± 0.37 | 5.48 ± 0.16 |  | 
MAQQQMTSSQKALMLELKSLQEEP [UBE2R2] | 4.33 ± 0.28 | 4.29 ± 0.24 |  | 
MATSELSCEVSEENCERREAFWAE [TCAP] | 5.07 ± 0.079 | 5.08 ± 0.32 |  | 
MAVAFLSAQRSKDPNSQVGACIVN [DCTD] | 2.01 ± 0.16 | 2.27 ± 0.25 |  | 
MDAAPGVDLSRILNEMRDQYEKMA [KRT17] | 3.82 ± 0.18 | 3.8 ± 0.17 |  | 
MDGRMEAATRGGSHLQAAAQTPPR [SCNN1D] | 4.92 ± 0.39 | 4.93 ± 0.061 |  | 
MDTSHQPLLPAPPKTPMDGADCGI [LYSMD4] | 5.04 ± 0.2 | 5.09 ± 0.33 |  | 
MEGLEENGGVVQVGELLPCKICGR [ZC2HC1A] | 4.13 ± 0.21 | 4.26 ± 0.48 |  | 
MERPQPDSMPQDLSEALKEATKEV [HMOX1] | 5.44 ± 0.25 | 5.43 ± 0.22 |  | 
MERSPDVSPGPSRSFKEELLCAVC [TRIM35] | 3.47 ± 0.18 | 3.6 ± 0.25 |  | 
MFQGWNCGDYFPDGITNGASWYSL [CPN1] | 2.7 ± 0.37 | 2.31 ± 0.45 |  | 
MFRNHLCLVFELLSYNLYDLLRNT [DYRK1B] | 2.54 ± 0.23 | 2.85 ± 0.72 |  | 
MGKLLQQPNTYADFEFLAFWQTQY [PKD2L1] | 2.21 ± 0.56 | 2.27 ± 0.23 |  | 
MHPGRTTGKGPSTHTQIDQQPPRL [M1AP] | 4.45 ± 0.1 | 4.511 ± 0.026 |  | 
MKLEKEEFVTLKAIALANSDSMHI [ESRRG] | 2.46 ± 0.22 | 2.48 ± 0.28 |  | 
